Assay results: patent US20250090688A1 (BROAD INSTITUTE, published 2025)

How the values were obtained:
Test in all cases: inhibition of transduction of human primary myotubes by virus pre-incubated with recombinant soluble integrin (affinity as inferred by the filing)
[1] = target: T1, recombinant soluble human integrin heterodimer αVβ6 (human, UniProt P06756 31-992; P18564 22-707)
T1 construct: Bought (R&D Systems); also called αVβ6 recombinant protein; αVb6

[2] = target: T2, recombinant soluble human integrin heterodimer αVβ8 (human, UniProt P06756 31-992; P26012 43-684)
T2 construct: Bought (R&D Systems); also called αVβ8 recombinant protein; αVb8

[3] = target: T3, recombinant soluble human integrin heterodimer αVβ3 (human, UniProt P06756 31-992; P05106 27-718)
T3 construct: Bought (R&D Systems); also called αVβ3 recombinant protein; αVb3

[4] = target: T4, recombinant soluble human integrin heterodimer αVβ1 (human, UniProt P06756 31-992; P05556 21-728)
T4 construct: Bought (R&D Systems); also called αVβ1 recombinant protein; αVb1

Measured: binding result

T2 sequence (P06756 31-992 limits assumed, chain 1 of 2): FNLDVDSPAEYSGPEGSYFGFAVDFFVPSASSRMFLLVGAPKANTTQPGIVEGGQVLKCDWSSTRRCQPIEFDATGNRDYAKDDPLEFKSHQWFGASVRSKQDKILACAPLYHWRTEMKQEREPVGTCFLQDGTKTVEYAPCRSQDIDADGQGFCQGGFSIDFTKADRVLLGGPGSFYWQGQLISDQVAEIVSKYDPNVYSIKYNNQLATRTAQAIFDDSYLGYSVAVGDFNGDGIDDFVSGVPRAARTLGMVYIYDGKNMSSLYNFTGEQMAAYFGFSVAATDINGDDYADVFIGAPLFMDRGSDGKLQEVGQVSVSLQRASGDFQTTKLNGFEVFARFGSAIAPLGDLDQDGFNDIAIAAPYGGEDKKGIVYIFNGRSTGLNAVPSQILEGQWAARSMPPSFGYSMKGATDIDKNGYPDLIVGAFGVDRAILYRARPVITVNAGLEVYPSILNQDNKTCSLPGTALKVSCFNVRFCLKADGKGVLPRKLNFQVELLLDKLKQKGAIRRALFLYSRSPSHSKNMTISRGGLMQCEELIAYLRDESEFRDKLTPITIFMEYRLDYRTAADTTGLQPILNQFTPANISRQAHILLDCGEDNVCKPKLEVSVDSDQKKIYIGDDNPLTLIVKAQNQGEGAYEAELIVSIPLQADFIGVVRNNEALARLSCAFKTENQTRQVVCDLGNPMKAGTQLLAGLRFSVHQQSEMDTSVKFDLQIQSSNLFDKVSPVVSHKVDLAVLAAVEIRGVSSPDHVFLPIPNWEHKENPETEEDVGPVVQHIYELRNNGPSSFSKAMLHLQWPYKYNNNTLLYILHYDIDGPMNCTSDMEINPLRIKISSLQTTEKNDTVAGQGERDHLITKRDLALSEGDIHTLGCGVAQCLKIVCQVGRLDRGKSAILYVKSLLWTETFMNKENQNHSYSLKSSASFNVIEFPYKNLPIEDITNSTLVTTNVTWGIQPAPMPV
T2 sequence (P26012 43-684 limits assumed, chain 2 of 2): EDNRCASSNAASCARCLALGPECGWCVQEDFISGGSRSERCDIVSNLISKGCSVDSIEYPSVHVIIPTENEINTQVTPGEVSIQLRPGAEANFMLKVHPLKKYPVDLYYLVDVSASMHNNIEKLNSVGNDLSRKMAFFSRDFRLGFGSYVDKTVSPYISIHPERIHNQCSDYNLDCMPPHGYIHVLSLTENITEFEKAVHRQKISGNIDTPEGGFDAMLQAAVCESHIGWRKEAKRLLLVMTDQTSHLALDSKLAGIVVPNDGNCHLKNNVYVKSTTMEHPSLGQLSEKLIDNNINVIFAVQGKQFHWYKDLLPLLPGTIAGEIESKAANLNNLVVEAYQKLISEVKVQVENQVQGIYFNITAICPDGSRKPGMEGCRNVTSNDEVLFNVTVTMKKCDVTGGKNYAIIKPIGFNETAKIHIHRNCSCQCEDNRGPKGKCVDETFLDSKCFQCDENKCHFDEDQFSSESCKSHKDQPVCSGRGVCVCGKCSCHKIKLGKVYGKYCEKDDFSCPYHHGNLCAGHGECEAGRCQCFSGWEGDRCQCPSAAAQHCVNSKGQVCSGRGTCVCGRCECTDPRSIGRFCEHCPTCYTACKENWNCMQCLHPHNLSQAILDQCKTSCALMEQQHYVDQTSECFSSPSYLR
T1 sequence (P06756 31-992 limits assumed, chain 1 of 2): as the sequence (P06756 31-992 limits assumed, chain 1 of 2) above
T1 sequence (P18564 22-707 limits assumed, chain 2 of 2): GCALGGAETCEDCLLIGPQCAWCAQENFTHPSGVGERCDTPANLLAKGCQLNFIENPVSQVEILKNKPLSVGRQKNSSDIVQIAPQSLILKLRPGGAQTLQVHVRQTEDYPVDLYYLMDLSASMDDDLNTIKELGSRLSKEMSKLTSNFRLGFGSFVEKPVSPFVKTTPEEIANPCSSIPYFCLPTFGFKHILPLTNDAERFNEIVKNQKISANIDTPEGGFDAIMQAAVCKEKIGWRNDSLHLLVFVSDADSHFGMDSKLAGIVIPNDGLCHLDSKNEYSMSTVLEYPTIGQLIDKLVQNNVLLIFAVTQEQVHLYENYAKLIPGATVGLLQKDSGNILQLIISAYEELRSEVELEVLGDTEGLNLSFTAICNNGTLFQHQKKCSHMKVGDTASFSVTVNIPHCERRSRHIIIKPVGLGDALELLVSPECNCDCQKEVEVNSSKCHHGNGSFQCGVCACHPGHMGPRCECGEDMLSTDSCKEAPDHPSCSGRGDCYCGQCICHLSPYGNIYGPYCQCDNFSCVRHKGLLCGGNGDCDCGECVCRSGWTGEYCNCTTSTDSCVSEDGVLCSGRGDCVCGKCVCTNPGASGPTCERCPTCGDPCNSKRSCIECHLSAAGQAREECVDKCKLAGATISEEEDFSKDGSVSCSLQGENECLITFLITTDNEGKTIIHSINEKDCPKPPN
T4 sequence (P06756 31-992 limits assumed, chain 1 of 2): as the sequence (P06756 31-992 limits assumed, chain 1 of 2) above
T4 sequence (P05556 21-728 limits assumed, chain 2 of 2): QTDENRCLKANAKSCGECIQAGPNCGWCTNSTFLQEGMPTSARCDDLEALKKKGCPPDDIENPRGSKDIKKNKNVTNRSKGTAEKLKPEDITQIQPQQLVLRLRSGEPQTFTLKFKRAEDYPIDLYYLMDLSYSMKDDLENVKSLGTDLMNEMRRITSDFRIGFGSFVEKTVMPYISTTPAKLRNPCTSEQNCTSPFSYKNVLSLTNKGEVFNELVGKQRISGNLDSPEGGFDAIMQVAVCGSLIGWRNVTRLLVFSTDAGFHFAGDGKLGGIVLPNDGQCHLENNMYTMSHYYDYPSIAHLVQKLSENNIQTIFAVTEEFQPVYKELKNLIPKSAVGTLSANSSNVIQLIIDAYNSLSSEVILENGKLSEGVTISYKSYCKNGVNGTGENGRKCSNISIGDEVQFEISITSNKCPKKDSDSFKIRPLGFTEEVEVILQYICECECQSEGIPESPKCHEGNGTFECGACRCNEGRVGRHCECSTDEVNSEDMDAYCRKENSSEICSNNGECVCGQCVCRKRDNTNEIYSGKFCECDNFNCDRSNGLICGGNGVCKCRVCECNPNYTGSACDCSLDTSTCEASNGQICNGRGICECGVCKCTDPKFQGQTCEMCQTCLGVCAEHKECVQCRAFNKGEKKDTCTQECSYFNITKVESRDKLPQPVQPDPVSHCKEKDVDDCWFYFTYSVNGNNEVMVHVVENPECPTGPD
T3 sequence (P06756 31-992 limits assumed, chain 1 of 2): as the sequence (P06756 31-992 limits assumed, chain 1 of 2) above
T3 sequence (P05106 27-718 limits assumed, chain 2 of 2): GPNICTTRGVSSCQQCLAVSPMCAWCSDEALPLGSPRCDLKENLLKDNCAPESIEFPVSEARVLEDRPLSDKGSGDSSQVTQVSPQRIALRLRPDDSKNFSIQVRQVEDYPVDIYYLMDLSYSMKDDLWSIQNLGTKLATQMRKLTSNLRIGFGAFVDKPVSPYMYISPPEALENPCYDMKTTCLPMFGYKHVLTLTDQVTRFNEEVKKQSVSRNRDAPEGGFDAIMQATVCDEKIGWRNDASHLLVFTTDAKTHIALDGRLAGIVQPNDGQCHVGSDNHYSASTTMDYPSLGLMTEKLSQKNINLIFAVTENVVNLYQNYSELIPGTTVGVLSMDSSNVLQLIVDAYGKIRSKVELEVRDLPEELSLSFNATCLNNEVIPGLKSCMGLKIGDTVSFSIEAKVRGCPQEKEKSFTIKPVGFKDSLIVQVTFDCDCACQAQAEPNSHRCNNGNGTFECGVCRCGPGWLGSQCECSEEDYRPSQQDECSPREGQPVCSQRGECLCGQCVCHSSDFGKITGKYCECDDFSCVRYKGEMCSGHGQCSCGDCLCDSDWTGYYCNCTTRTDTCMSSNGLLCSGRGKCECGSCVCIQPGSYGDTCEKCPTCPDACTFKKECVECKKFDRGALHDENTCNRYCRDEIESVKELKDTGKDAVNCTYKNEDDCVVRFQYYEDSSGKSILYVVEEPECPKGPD

B1: MyoAAV 2A (other)
chain: MAADGYLPDWLEDNLSEGIREWWALKPGAPQPKANQQHQDNARGLVLPGYKYLGPGNGLDKGEPVNAADAAALEHDKAYDQQLKAGDNPYLKYNHADAEFQERLKEDTSFGGNLGRAVFQAKKRLLEPLGLVEEAAKTAPGKKRPVEQSPQEPDSSAGIGKSGAQPAKKRLNFGQTGDTESVPDPQPIGEPPAAPSGVGSLTMASGGGAPVADNNEGADGVGSSSGNWHCDSQWLGDRVITTSTRTWALPTYNNHLYKQISNSTSGGSSNDNAYFGYSTPWGYFDFNRFHCHFSPRDWQRLINNNWGFRPKRLNFKLFNIQVKEVTDNNGVKTIANNLTSTVQVFTDSDYQLPYVLGSAHEGCLPPFPADVFMIPQYGYLTLNDGSQAVGRSSFYCLEYFPSQMLRTGNNFQFSYEFENVPFHSSYAHSQSLDRLMNPLIDQYLYYLSKTINGSGQNQQTLKFSVAGPSNMAVQGRNYIPGPSYRQQRVSTTVTQNNNSEFAWPGASSWALNGRNSLMNPGPAMASHKEGEDRFFPLSGSLIFGKQGTGRDNVDADKVMITNEEEIKTTNPVATESYGQVATNHQGPGRGDQTTLAQAQTGWVQNQGILPGMVWQDRDVYLQGPIWAKIPHTDGNFHPSPLMGGFGMKHPPPQILIKNTPVPADPPTAFNKDKLNSFITQYSTGQVSVEIEWELQKENSKRWNPEIQYTSNYYKSNNVEFAVNTEGVYSEPRPIGTRYLTRNL
notes: Recombinant AAV particle; also called EMyoAAV; enhanced MyoAAV
binds: [1] | [2] | [3] | [4]
